Source: doi:10.1101/2021.02.18.431786 (bioRxiv, 2021)

T1: Human ABCG2 (breast cancer resistance protein), wild type, N-terminal Flag tag, reconstituted in nanodiscs (human), Q9UNQ0
T1 chain: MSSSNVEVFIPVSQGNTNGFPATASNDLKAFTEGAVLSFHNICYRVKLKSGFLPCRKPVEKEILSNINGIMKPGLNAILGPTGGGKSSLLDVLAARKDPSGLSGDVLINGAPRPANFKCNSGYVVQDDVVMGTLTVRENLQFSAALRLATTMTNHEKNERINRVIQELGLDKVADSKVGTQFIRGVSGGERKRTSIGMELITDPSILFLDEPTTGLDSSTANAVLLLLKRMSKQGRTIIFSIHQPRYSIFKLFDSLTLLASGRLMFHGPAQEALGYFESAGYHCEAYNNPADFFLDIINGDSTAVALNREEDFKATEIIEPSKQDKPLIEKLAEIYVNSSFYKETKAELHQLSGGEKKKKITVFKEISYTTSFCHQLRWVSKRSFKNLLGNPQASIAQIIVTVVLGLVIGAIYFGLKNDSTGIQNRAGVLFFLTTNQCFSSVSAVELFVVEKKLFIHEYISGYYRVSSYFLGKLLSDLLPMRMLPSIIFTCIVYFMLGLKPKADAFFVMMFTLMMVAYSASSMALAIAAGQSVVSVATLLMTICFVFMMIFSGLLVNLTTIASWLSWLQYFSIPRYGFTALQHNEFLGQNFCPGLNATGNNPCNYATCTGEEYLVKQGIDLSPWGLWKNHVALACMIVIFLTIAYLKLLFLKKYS


Experiments:
[1] = target: Human ABCG2 (breast cancer resistance protein), wild type, N-terminal Flag tag, reconstituted in nanodiscs (human, UniProt Q9UNQ0); assay: cryo-EM structure
[2] = target: T1, Human ABCG2 (breast cancer resistance …); assay: cryo-EM structure; conditions: remark: other sources report otherwise

binding result [1]	stoichiometry N [2]	Binder
binds		Fab fragment of the ABCG2-specific monoclonal antibody 5D3 (Fab, V domains shown) VH: QVQLQESGPGLVKPSQSLSLTCTVTGFSITSDYAWNWIRQFPGKKLEWMGYINFDGGTTYNPSLRGRISITRDTSKNQFFLQLRSVTPEDTATYYCATFYGAKGTLDYWGQGTSVTVSS VL: DIVLTQSPSSFSVSLGDRVTISCKASGYILNRLAWYQQKPGNAPRLLISGATSLETGFPSRFSGTGSGKDYTLSISSLQTEDVGTYYCQQYWSTPWTFGGGTKLEIR
	2	Human ABCG2 (breast cancer resistance protein), wild type, N-terminal Flag tag, reconstituted in nanodiscs, Q9UNQ0 1-655 (natural protein) MSSSNVEVFIPVSQGNTNGFPATASNDLKAFTEGAVLSFHNICYRVKLKSGFLPCRKPVEKEILSNINGIMKPGLNAILGPTGGGKSSLLDVLAARKDPSGLSGDVLINGAPRPANFKCNSGYVVQDDVVMGTLTVRENLQFSAALRLATTMTNHEKNERINRVIQELGLDKVADSKVGTQFIRGVSGGERKRTSIGMELITDPSILFLDEPTTGLDSSTANAVLLLLKRMSKQGRTIIFSIHQPRYSIFKLFDSLTLLASGRLMFHGPAQEALGYFESAGYHCEAYNNPADFFLDIINGDSTAVALNREEDFKATEIIEPSKQDKPLIEKLAEIYVNSSFYKETKAELHQLSGGEKKKKITVFKEISYTTSFCHQLRWVSKRSFKNLLGNPQASIAQIIVTVVLGLVIGAIYFGLKNDSTGIQNRAGVLFFLTTNQCFSSVSAVELFVVEKKLFIHEYISGYYRVSSYFLGKLLSDLLPMRMLPSIIFTCIVYFMLGLKPKADAFFVMMFTLMMVAYSASSMALAIAAGQSVVSVATLLMTICFVFMMIFSGLLVNLTTIASWLSWLQYFSIPRYGFTALQHNEFLGQNFCPGLNATGNNPCNYATCTGEEYLVKQGIDLSPWGLWKNHVALACMIVIFLTIAYLKLLFLKKYS
